{"source": "patent US20040043401A1", "target": "human prostate-specific membrane antigen (PSMA) (human) (UniProt Q04609)", "sequence (Q04609 whole entry, the tested form may be a part)": "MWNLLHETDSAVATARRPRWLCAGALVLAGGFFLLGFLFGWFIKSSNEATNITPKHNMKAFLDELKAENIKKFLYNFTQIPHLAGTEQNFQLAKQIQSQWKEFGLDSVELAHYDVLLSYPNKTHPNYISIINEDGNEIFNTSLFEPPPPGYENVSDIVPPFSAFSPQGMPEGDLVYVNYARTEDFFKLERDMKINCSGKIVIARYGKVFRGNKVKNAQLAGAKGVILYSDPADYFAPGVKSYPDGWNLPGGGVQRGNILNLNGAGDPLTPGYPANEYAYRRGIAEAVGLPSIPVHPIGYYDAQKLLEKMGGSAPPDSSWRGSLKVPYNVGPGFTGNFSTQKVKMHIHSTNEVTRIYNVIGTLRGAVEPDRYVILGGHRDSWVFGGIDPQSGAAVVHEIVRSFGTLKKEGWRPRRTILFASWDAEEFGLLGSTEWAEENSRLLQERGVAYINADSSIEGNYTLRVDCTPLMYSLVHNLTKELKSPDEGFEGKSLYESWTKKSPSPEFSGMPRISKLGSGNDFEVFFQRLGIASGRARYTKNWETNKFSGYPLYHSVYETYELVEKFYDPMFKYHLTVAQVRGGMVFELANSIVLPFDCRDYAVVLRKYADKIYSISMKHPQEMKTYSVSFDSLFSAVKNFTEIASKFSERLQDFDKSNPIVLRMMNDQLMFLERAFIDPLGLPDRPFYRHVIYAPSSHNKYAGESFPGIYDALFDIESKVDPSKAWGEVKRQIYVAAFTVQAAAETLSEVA", "assay": "cell-based or functional assay", "conditions": "for IL-2 content normalized for gene transfer efficiency, transduced PBLs on NIH3T3 feeder expressing PSMA + B7.1: scale: pg/ml divided by percentage transduced cells", "data": [{"substance": "Pz28 fusion receptor (Pz1 with the 41 amino acid intracellular domain of human CD28 at its C-terminus) (from UniProt P01732 137-209)", "values": [{"measurement": "IL-2 concentration in supernatant (ELISA, 24 h), transduced PBLs on NIH3T3 feeder expressing PSMA", "result": "< 50", "unit": "pg/mL"}, {"measurement": "IL-2 concentration in supernatant (ELISA, 24 h), transduced PBLs on NIH3T3 feeder expressing PSMA + B7.1", "result": 29700, "unit": "pg/mL"}, {"measurement": "IL-2 content normalized for gene transfer efficiency, transduced PBLs on NIH3T3 feeder expressing PSMA + B7.1", "result": 958}]}, {"substance": "Pz1 fusion receptor (J591 scFv - human CD8 alpha hinge and transmembrane - intracellular domain of human TCR zeta) (from UniProt P01732 137-209)", "values": [{"measurement": "IL-2 concentration in supernatant (ELISA, 24 h), transduced PBLs on NIH3T3 feeder expressing PSMA", "result": "< 50", "unit": "pg/mL"}, {"measurement": "IL-2 concentration in supernatant (ELISA, 24 h), transduced PBLs on NIH3T3 feeder expressing PSMA + B7.1", "result": 164000, "unit": "pg/mL"}, {"measurement": "IL-2 content normalized for gene transfer efficiency, transduced PBLs on NIH3T3 feeder expressing PSMA + B7.1", "result": 3280}]}, {"substance": "P28 fusion receptor (J591 scFv fused to human CD28) (from UniProt P10747 114-220)", "values": [{"measurement": "IL-2 concentration in supernatant (ELISA, 24 h), transduced PBLs on NIH3T3 feeder expressing PSMA", "result": "< 50", "unit": "pg/mL"}, {"measurement": "IL-2 concentration in supernatant (ELISA, 24 h), transduced PBLs on NIH3T3 feeder expressing PSMA + B7.1", "result": "< 50", "unit": "pg/mL"}]}]}
